Data as given in patent WO2010007376A2 (dated 2010).
Values belong to the binder of their own block, whether it stands above or below them.

Columns and labels:
[1] = target: T1, recombinant human CD28/Fc Chimera (R&D Systems, Abingdon, UK) (human, UniProt P10747 19-152); assay: BIAcore, CM5 chip coated with 12500 RU of CD28-Fc; dAb at 19.4 uM
T1 construct: Bought reagent; Fc part of the bought chimera not given

[2] = target: T1, recombinant human CD28/Fc Chimera (R&D …); assay: BIAcore, CM5 chip coated with 12500 RU of CD28-Fc; dAb at 42.3 uM
[3] = target: T1, recombinant human CD28/Fc Chimera (R&D …); assay: BIAcore, CM5 chip coated with 12500 RU of CD28-Fc; dAb at 16.6 uM
[4] = target: T1, recombinant human CD28/Fc Chimera (R&D …); assay: BIAcore, CM5 chip coated with 12500 RU of CD28-Fc; dAb concentration not given
[5] = target: T1, recombinant human CD28/Fc Chimera (R&D …); assay: BIAcore, CM5 chip coated with 12500 RU of CD28-Fc; dAb at 57.5 uM
[6] = target: T1, recombinant human CD28/Fc Chimera (R&D …); assay: BIAcore, CM5 chip coated with 12500 RU of CD28-Fc; dAb at 13.8 uM

binding result [4]: binds
B5: DOM21-38 (other)
VH: EVQLLESGGGLVQPGGSLRLSCAASGFTFILYDMQWVRQAPGKGLEWVSRISANGHDTYYADSVKGRFTISRDNSKNTLYLQMNSLRAEDTAVYYCAKGPHYLFDYWGQGTLVTVSS
notes: Human VH antibody single variable domain (dAb), expressed from pDOM5 and purified

binding result [5]: binds
B6: DOM21-20 (other)
VH: EVQLLESGGGLVQPGGSLRLSCAASGFTFPAYSMIWVRQAPGKGLEWVSTISPLGYSTYYADSVKGRFTISRDNSKNTLYLQMNSLRAEDTAVYYCAEQTAYLNRATEHFDYWGQGTLVTVSS
notes: as for B5

binding result [6]: binds
B7: DOM21-18 (other)
VL: DIQMTQSPSSLSASVGDRVTITCRASQYIGTSLNWYQQKPGKAPKLLTYQASLLQSGVPSRFSGSGSGTDFTLTISSLQPEDFATYYCQQLALRPMTFGQGTKVEIKR
notes: Human VK (DPK9/JK1) antibody single variable domain (dAb), expressed from pDOM5 and purified

Continued, binder first:

B1: DOM21-22 (other)
VH: EVQLLESGGGLVQPGGSLRLSCAASGFTFELYQMGWVRQAPGKGLEWVSTIMPSGNLTYYADSVKGRFTISRDNSKNTLYLQMNSLRAEDTAVYYCAKMWSLNLGFHAAFDYWGQGTLVTVSS
notes: as for B5
binding result [1]: binds

B2: DOM21-4 (other)
VH: EVQLLESGGGLVQPGGSLRLSCAASGFTFSRYHMAWVRQAPGKGLEWVSVIDSLGLQTYYADSVKGRFTISRDNSKNTLYLQMNSLRAEDTAVYYCAEYGGAFDYWGQGTLVTVSS
notes: Human VH antibody single variable domain (dAb) from a DP47/JH4b library, expressed from pDOM5 and purified
binding result [2]: binds

B3: DOM21-28 (other)
VL: DIQMTQSPSSLSASVGDRVTITCRASQSISHSLVWYQQKPGKAPKLLIYWASLLQSGVPSRFSGSGSGTDFTLTISSLQPEDFATYYCQQGMTTPFTFGQGTKVEIKR
notes: Human VK antibody single variable domain (dAb), expressed from pDOM5 and purified
binding result [3]: binds

B4: DOM21-44 (other)
VH: EVQLLESGGGLVQPGGSLRLSCAASGFTFARYTMVWVRQAPGKGLEWVSAIHFDGRTTYYADSVKGRFTISRDNSKNTLYLQMNSLRAEDTAVYYCAKNEWASLKHFDYWGQGTLVTVSS
notes: as for B5
binding result [4]: binds
